Laboratory results from paper doi:10.1101/677500.

Experiments:
[1] = biological target: GST-EhPKDL (Entamoeba histolytica Protein kinase D like kinase, recombinant) (Entamoeba histolytica); assay: SEC
[2] = biological target: EhPKDL-FITC (Entamoeba histolytica); assay: other fluorescence titration

Substance | stoichiometry N [1] | stoichiometry N [2] [molar ratio]
GST-EhPKDL (Entamoeba histolytica Protein kinase D like kinase, recombinant) (enzyme) | 2 | –
actin-TRITC (natural protein) | – | 1
